Source: publication PMC4113483

Target: Mu-HSSKLQ-AMC (morpholinocarbonyl-His-Ser-Ser-Lys-Leu-Gln-7-amido-4-methylcoumarin), fluorogenic PSA substrate
Assay: Spectrofluorimetric pre-steady-state (burst) and steady-state kinetics of AMC release (excitation 380 nm, emission 460 nm)
Details: 37.0 C, 100 mM NaCl, 10 mM CaCl2, 25 mM bis-tris-HCl and 25 mM tris-HCl between pH 6.5 and 9.0 (the buffer used at each pH is not stated)

pKES1, group 1 of PSA (unassigned; tentatively Lys95E of the kallikrein loop) (pH 6.5-9.0): 8.59 pH units
pKES2, group 2 of PSA (unassigned; tentatively a histidine, possibly His57 or His172) (pH 6.5-9.0): 5.11 pH units
pKU1, group 1 of PSA (unassigned; tentatively Lys95E of the kallikrein loop) (pH 6.5-9.0): 8.02 pH units
pKU2, group 2 of PSA (unassigned; tentatively a histidine, possibly His57 or His172) (pH 6.5-9.0): 7.61 pH units
Ks (pH 6.5): 490 µM
Ks (pH 7.0): 120 µM
Ks (pH 7.5): 62 µM
Ks (pH 8.0): 42 µM
Ks (pH 8.5): 55 µM
Ks (pH 9.0): 75 µM
Substance: Prostate-specific antigen (PSA, kallikrein-related peptidase 3, KLK3)
